± gives the uncertainty stated by the source.
Experiment: self-splicing fitness, log relative to wild type (ln ratio); higher = more splicing; Tetrahymena group I intron in knt gene, E. coli kanamycin selection, DiMSum; sequences stand for … in CUCUCU…GGAGGGAAAAGUUAUCAGGCAUGCACCUGGUAGCUAGUCUUUAAACCAAUAGAUUGCAUCGGUUUAAAAGGCAAGACCGUCAAAUUGCGGGAAAGGGGUCAACAGCCGUUCAGUACCAAGUCUCAGGGGAAACUUUGAGAUGGCCUUGCAAAGGGUAUGGUAAUAAGCUGACGGACAUGGUCCUAACCACGCAGCCAAGUCCUAAGUCAACAGAUCUUCUGUUGAUAUGGAUGCAGUUCACAGACUAAAUGUCGGUCGGGGAAGAUGUAUUCUUCUCAUAAGAUAUAGUCGGACCUCUCCUUAAUGGGAGCUAGCGGAUGAAGUGAUGCAACACUGGAGCCGCUGGGAACUAAUUUGUAUGCGAAAGUAUAUUGAUUAGUUUUGGAGUACUCGUGGUCG
Procedure, shortened: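 DiMSum derived fitness as the error-weighted combination of fold changes across replicates, kanamycin versus no kanamycin, normalised to wild type. E. coli BL21(DE3) held the library, which randomised all eight P1ex-region intron nucleotides within the knt kanamycin-resistance gene on pET-22b(+). Six replicate transformations grew overnight at 37°C or 30°C on LB agar with or without 25 μg/mL kanamycin, also containing 100 μg/mL carbenicillin, 50 μM IPTG and 0.2% rhamnose, and pooled colonies were amplicon-sequenced on an Illumina HiSeq 2500.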

| Sequence | self-splicing fitness (ln) (30 °C) | self-splicing fitness (ln) (37 °C) |
| --- | --- | --- |
| GUGUAGCAAUAUUACGAUUC | 0.325 ± 0.094 | -0.738 ± 0.088 |
| GUGUAGCAAUAUUACGCAUU | -2.29 ± 0.3 | -1.97 ± 0.28 |
| GUGUAGCAAUAUUACGCGUG | -3.82 ± 0.26 | -1.49 ± 0.15 |
| GUGUAGCAAUAUUACGCUAG | -3.53 ± 0.31 | -1.88 ± 0.36 |
| GUGUAGCAAUAUUACGCUUC | -2.71 ± 0.28 | -3.09 ± 0.47 |
| GUGUAGCAAUAUUACGGAAA | -3 ± 0.28 | -1.42 ± 0.27 |
| GUGUAGCAAUAUUACGGAAU | -1.42 ± 0.13 | -1.64 ± 0.25 |
| GUGUAGCAAUAUUACGGCAG | – | -0.824 ± 0.23 |
| GUGUAGCAAUAUUACGGGAC | -3.44 ± 0.32 | -2.03 ± 0.28 |
| GUGUAGCAAUAUUACGUCCG | -3.16 ± 0.33 | -0.647 ± 0.22 |
| GUGUAGCAAUAUUACGUCCU | -0.899 ± 0.15 | -0.148 ± 0.19 |
| GUGUAGCAAUAUUACGUGGG | -4.25 ± 0.21 | -4.08 ± 0.26 |
| GUGUAGCAAUAUUACGUGUA | -2.62 ± 0.14 | -1.22 ± 0.11 |
| GUGUAGCAAUAUUACGUUGC | -1.92 ± 0.22 | -2.28 ± 0.46 |
| GUUAAGCAAUAUUACGACAA | -0.704 ± 0.29 | -1.12 ± 0.26 |
| GUUAAGCAAUAUUACGACAG | -2.85 ± 0.28 | -1.82 ± 0.33 |
| GUUAAGCAAUAUUACGACCA | -0.467 ± 0.21 | -1.67 ± 0.17 |
| GUUAAGCAAUAUUACGACUG | -2.57 ± 0.2 | -2.53 ± 0.4 |
| GUUAAGCAAUAUUACGAUAU | -1.02 ± 0.067 | -0.0864 ± 0.074 |
| GUUAAGCAAUAUUACGCAAC | – | -0.0162 ± 0.34 |
| GUUAAGCAAUAUUACGCCGA | -1.83 ± 0.19 | -0.947 ± 0.18 |
| GUUAAGCAAUAUUACGCCGG | – | -0.148 ± 0.27 |
| GUUAAGCAAUAUUACGCCGU | -1.42 ± 0.19 | -1.39 ± 0.23 |
| GUUAAGCAAUAUUACGCCUC | -1.41 ± 0.25 | 0.196 ± 0.31 |
| GUUAAGCAAUAUUACGCGAG | -0.369 ± 0.1 | -0.341 ± 0.14 |
| GUUAAGCAAUAUUACGCGCA | -0.293 ± 0.12 | 0.115 ± 0.15 |
| GUUAAGCAAUAUUACGCUCA | -0.759 ± 0.1 | 0.0333 ± 0.13 |

| Sequence | self-splicing fitness (ln) (30 °C) | self-splicing fitness (ln) (37 °C) |
| --- | --- | --- |
| GUUAAGCAAUAUUACGCUGG | -0.613 ± 0.17 | -0.0646 ± 0.2 |
| GUUAAGCAAUAUUACGCUUA | -3.09 ± 0.26 | -2.71 ± 0.25 |
| GUUAAGCAAUAUUACGGAGG | -4 ± 0.23 | -1.56 ± 0.19 |
| GUUAAGCAAUAUUACGGAGU | -3.71 ± 0.23 | -0.486 ± 0.13 |
| GUUAAGCAAUAUUACGGCAC | -0.637 ± 0.12 | 0.0416 ± 0.15 |
| GUUAAGCAAUAUUACGGUAG | -2.87 ± 0.17 | -1.69 ± 0.17 |
| GUUAAGCAAUAUUACGGUCA | -0.91 ± 0.098 | -0.943 ± 0.092 |
| GUUAAGCAAUAUUACGUAAA | -1.45 ± 0.12 | -1.43 ± 0.12 |
| GUUAAGCAAUAUUACGUGCA | -1.44 ± 0.1 | -0.144 ± 0.11 |
| GUUAAGCAAUAUUACGUGUU | -3.27 ± 0.14 | -1.11 ± 0.1 |
| GUUAAGCAAUAUUACGUUGA | -3.87 ± 0.33 | -1.43 ± 0.25 |
| GUUAAGCAAUAUUACGUUUC | -1.75 ± 0.21 | -1.29 ± 0.18 |
| GUUCAGCAAUAUUACGAAUA | -1.01 ± 0.12 | -0.181 ± 0.1 |
| GUUCAGCAAUAUUACGAGAC | -1.99 ± 0.4 | -0.261 ± 0.22 |
| GUUCAGCAAUAUUACGAGAG | -0.895 ± 0.12 | -0.725 ± 0.12 |
| GUUCAGCAAUAUUACGAUAA | -0.196 ± 0.084 | 0.169 ± 0.097 |
| GUUCAGCAAUAUUACGCAAA | -0.717 ± 0.17 | -0.625 ± 0.18 |
| GUUCAGCAAUAUUACGCACA | 1.48 ± 0.34 | -1.71 ± 0.49 |
| GUUCAGCAAUAUUACGCCCG | -1.59 ± 0.22 | -0.196 ± 0.28 |
| GUUCAGCAAUAUUACGCCUG | -1.97 ± 0.2 | -0.936 ± 0.22 |
| GUUCAGCAAUAUUACGCCUU | -0.418 ± 0.083 | 0.046 ± 0.082 |
| GUUCAGCAAUAUUACGCGCU | -2.34 ± 0.18 | -1.13 ± 0.13 |
| GUUCAGCAAUAUUACGCGGA | -4.19 ± 0.42 | -2.54 ± 0.23 |
| GUUCAGCAAUAUUACGCGUC | -1.41 ± 0.071 | -0.257 ± 0.078 |
| GUUCAGCAAUAUUACGGUAC | -2.69 ± 0.19 | 0.0172 ± 0.14 |
| GUUCAGCAAUAUUACGGUUG | -1.9 ± 0.089 | -0.591 ± 0.1 |
| GUUCAGCAAUAUUACGUACG | -1.32 ± 0.1 | -0.0258 ± 0.11 |

| Sequence | self-splicing fitness (ln) (30 °C) | self-splicing fitness (ln) (37 °C) |
| --- | --- | --- |
| GUUCAGCAAUAUUACGUAGC | -0.047 ± 0.087 | -0.0432 ± 0.11 |
| GUUCAGCAAUAUUACGUCAU | -0.56 ± 0.083 | -0.0298 ± 0.09 |
| GUUCAGCAAUAUUACGUCGG | -3.7 ± 0.21 | -2.39 ± 0.23 |
| GUUCAGCAAUAUUACGUGCG | -1.45 ± 0.068 | -0.215 ± 0.093 |
| GUUCAGCAAUAUUACGUUAG | -1.3 ± 0.077 | -0.731 ± 0.11 |
| GUUGAGCAAUAUUACGAAGA | – | -2.71 ± 0.48 |
| GUUGAGCAAUAUUACGAGUA | – | -1.41 ± 0.39 |
| GUUGAGCAAUAUUACGAUCC | -0.364 ± 0.16 | 0.0175 ± 0.28 |
| GUUGAGCAAUAUUACGAUCG | -1.18 ± 0.39 | – |
| GUUGAGCAAUAUUACGCCCA | -1.93 ± 0.45 | -1.74 ± 0.38 |
| GUUGAGCAAUAUUACGCCCG | -2.7 ± 0.49 | – |
| GUUGAGCAAUAUUACGCCUA | -1.73 ± 0.26 | -1.92 ± 0.3 |
| GUUGAGCAAUAUUACGCCUC | -2.09 ± 0.39 | – |
| GUUGAGCAAUAUUACGCGGG | -3.17 ± 0.15 | -2.51 ± 0.26 |
| GUUGAGCAAUAUUACGCGUA | -3.48 ± 0.47 | -0.589 ± 0.18 |
| GUUGAGCAAUAUUACGCUAA | -2.15 ± 0.27 | -2.26 ± 0.26 |
| GUUGAGCAAUAUUACGGCAU | -1.32 ± 0.12 | -0.928 ± 0.17 |
| GUUGAGCAAUAUUACGGCCC | -1.28 ± 0.19 | -0.757 ± 0.29 |
| GUUGAGCAAUAUUACGGCGG | – | -2.66 ± 0.36 |
| GUUGAGCAAUAUUACGGCUC | -2.04 ± 0.31 | -1.38 ± 0.31 |
| GUUGAGCAAUAUUACGGGGC | -2.38 ± 0.19 | -2.84 ± 0.29 |
| GUUGAGCAAUAUUACGGUCA | -1.81 ± 0.26 | -2.45 ± 0.29 |
| GUUGAGCAAUAUUACGGUCC | -2.05 ± 0.15 | -1.3 ± 0.19 |
| GUUGAGCAAUAUUACGGUCU | -3.49 ± 0.21 | -2.56 ± 0.18 |
| GUUGAGCAAUAUUACGUCAA | -2.76 ± 0.28 | – |

Source: the supplement of paper PMC7877785
